We go through 29 sequences from the supplement of paper PMC9170038.

The data set relates to MS2 coat protein. As to the kind of experiment: apparent KD of MS2 coat protein; designed switch direction (-1 OFF switch, 1 ON switch): -1; higher = weaker reporter binding. In a few lines:
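Designed RNA switches sharing common flanks were transcribed on Illumina chips by stalled E. coli RNA polymerase. They were titrated with SNAP-549-labelled MS2 coat protein, from 0.7 or 1.5 nM doubling to 3 µM, in Tris-HCl pH 7.5 buffer with KCl, MgCl2, BSA, DTT, tRNA and Tween-20. Titrations ran without input, with 200 uM small-molecule ligand, or with an oligonucleotide input. The apparent KD of each design is the median over its clusters, after curve-fitting of normalised cluster fluorescence.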

The mark [1] stands for this setting: input ligand: microRNA oligo, concentration not stated.
Where [2] appears, read: Eterna round: R95, input ligand: FMN 200 uM.
[3] abbreviates: Eterna round: R95, input ligand: microRNA oligo, concentration not stated.
[4] abbreviates: Eterna round: R95, input ligand: none.

As for “UGGUCCCUGAAACAUGAGGAUCACCCAUGUAUAAUGAGGACAAAGGAUAUAUCCCACCAGGUAGGGUAGAAGGUUGAACUCUAC [Eternabot solution 42] (Eterna round: R96, puzzle: Exclusion NG 3)”, the “apparent KD of MS2 coat protein” value is 0.0131 µM (input ligand: FMN 200 uM), 0.0106 µM under setting [1] and 0.0162 µM (input ligand: none).

“UGUACGAUGCGUGCUGACAUGCGUCGUGCAGCAGGUGUUACAUGAGGAUCACCCAUGUCCUCAUUUGCUCGUCUUGU [SL-sv3-2.09 JL mod] (puzzle: Sensor v3, turn-off variant 2)”: the “apparent KD of MS2 coat protein” value under setting [2] stood at 0.379 µM, the “apparent KD of MS2 coat protein” value under setting [3] worked out at 0.185 µM and the “apparent KD of MS2 coat protein” value under setting [4] was found to be 0.374 µM.

For “UGUACUAACACGUAAGUGUUAGUACUAUAAGCUUGUGUUACAUGAGGAUCACCCAUGUCCUCAUAAGCUCGUCUUAA [Mat - Sensor v3 - Turn-off var 2 - D72] (puzzle: Sensor v3, turn-off variant 2)”, the “apparent KD of MS2 coat protein” value was 0.0397 µM under setting [2], 0.182 µM under setting [3] and 0.0372 µM under setting [4].

Consider “UGUAGGUCUACCUUGGUGGAUCUGCAUUUUUGCAGGUGUACAUGAGGAUCACCCAUGUCCUCAUUUGCUCGUCUUAU [JL turnoff v2 99.31] (puzzle: Sensor v3, turn-off variant 2)”, for which the “apparent KD of MS2 coat protein” value runs as follows: under setting [2], 0.467 µM; under setting [3], 0.56 µM; under setting [4], 0.542 µM.

Turning to “UGUCUCCUCGUCAGGAUAUUUCGUUGUGCAGACUGAAAGAAGGGACAUGAGGAUCACCCAUGUACCUCGUCGGU [Eternabot (L2) Solution 98] (Eterna round: R97, puzzle: Brourd's mod of Exclusion 4)”, the “apparent KD of MS2 coat protein” value (input ligand: FMN 200 uM) turned out to be 0.0223 µM and the “apparent KD of MS2 coat protein” value (input ligand: none) turned out to be 0.0169 µM.

“UGUGCGUAUGUGAGGAUAUGCUGGUCCUUGGAUCAGCAGAAGGCACAUGAGGAUCACCCAUGUGGUGUCGUACU [salish99_Bmod_Ex4_009] (puzzle: Brourd's mod of Exclusion 4)”: the “apparent KD of MS2 coat protein” value under setting [3] came to 0.202 µM.

Regarding “UGUGCGUAUGUGAGGAUAUGCUGGUCCUUGGCUCGGCAGAAGGCACAUGAGGAUCACCCAUGUGGUGUCGUACA [salish99_Bmod_ex4_071] (puzzle: Brourd's mod of Exclusion 4)”, the “apparent KD of MS2 coat protein” value under setting [3] is 0.158 µM.

In the case of “UGUGUGAGACAGGAUAUGCUGGAUGUGUGGCGGGUAGAAGGGUCUACAUGAGGAUCACCCAUGUGGCCGGUUGG [Ex6 #69] (Eterna round: R97, puzzle: Exclusion 6)”, the “apparent KD of MS2 coat protein” value was found to be 0.0158 µM (input ligand: FMN 200 uM) and 0.0189 µM (input ligand: none).

As to “UGUUGUCGCGCAGGAUAUUGUCAACAGGCAGUAGGAUAUCCGAAAGGAGAAGGACCGCCAACAGGCGAGAAGGGCGGGACAACU [pwkr exNG2 2xF7 2xFMN.9] (Eterna round: R96, puzzle: Exclusion NG 2)”, the “apparent KD of MS2 coat protein” value by setting is: (input ligand: FMN 200 uM) 0.0321 µM; under setting [1], 0.0357 µM; (input ligand: none) 0.016 µM.

As to “UGUUGUCGCGUAGGAUAUGUAUGAGGAUCACCCAUAAGAGUAUAUUUACCAUGAGGAUCACCCAUGUAGAAGGACGGGACAACU [pwkr exNG2 2xF5 1xFMN.12] (Eterna round: R96, puzzle: Exclusion NG 2)”, the “apparent KD of MS2 coat protein” value is, setting by setting: (input ligand: FMN 200 uM) 0.232 µM; under setting [1], 0.0756 µM; (input ligand: none) 0.127 µM.

Regarding “UGUUGUUACGCAGGAUAUGAGGAUCACCCAUAUUAGGAUAUCGAAAGAGAAGUUCUGAGGAUCACCCAGAAGGGCGGGUUAACA [pwkr exNG2 2xF5 2xFMN.35] (Eterna round: R96, puzzle: Exclusion NG 2)”, the “apparent KD of MS2 coat protein” value by setting is: (input ligand: FMN 200 uM) 0.117 µM; under setting [1], 0.0378 µM; (input ligand: none) 0.0532 µM.

Consider “UGUUGUUACGUAGGAUAUCCACCAACAGGUGGAAGGAUAUGUACGCAGAAGGUUCGCCAACAGGCGGAGAAGGACGGGUUAACA [pwkr exNG2 2xF7 2xFMN.27] (Eterna round: R96, puzzle: Exclusion NG 2)”, for which the “apparent KD of MS2 coat protein” value worked out at 1.37 µM (input ligand: FMN 200 uM), 0.473 µM under setting [1] and 0.3 µM (input ligand: none).

Consider “UGUUGUUCAGGAUAUGAUGUAUAAUACAUGAGGAUCACCCAUGUAGAUCCUGCUUUGGCGUCAGAAGGGAAUGUUG [salish99_ex5_r4_107] (Eterna round: R97, puzzle: Exclusion 5)”, for which the “apparent KD of MS2 coat protein” value is, setting by setting: (input ligand: FMN 200 uM) 0.0559 µM; (input ligand: none) 0.0518 µM.

For the sequence “UGUUGUUGAUAGGAUAUACAGGUAGGAGUAGGAGUAGAAGGAUCUACAUGAGGAUCACCCAUGUAGGAGUGAGA [JR_E6_Sub002] (puzzle: Exclusion 6)”, the “apparent KD of MS2 coat protein” value under setting [3] was determined as 0.0149 µM.

As to “UGUUUAUAUGAAGGAUAUACUUAACAUGAGGAUCACCCAUGUGGUGUUGUGAGUGAGUGAGUUUAGUAGAAGGUCAAUUCUUUU [JMF's solution 97] (Eterna round: R96, puzzle: Exclusion NG 2)”, the “apparent KD of MS2 coat protein” value (input ligand: FMN 200 uM) was 0.996 µM, the “apparent KD of MS2 coat protein” value under setting [1] came out at 0.553 µM and the “apparent KD of MS2 coat protein” value (input ligand: none) came out at 0.425 µM.

For “UUAAAUCAUGUAGGAUAUGCAAGGCGAACCUAUGCAGAAGGACAUGAGGAUCACCCAUGUGCUGCGGUCUGCGUACAGAUCGCU [JL ENG1 1.02] (Eterna round: R96, puzzle: Exclusion NG 1)”, the “apparent KD of MS2 coat protein” value runs as follows: (input ligand: FMN 200 uM) 0.503 µM; under setting [1], 0.0307 µM; (input ligand: none) 0.039 µM.

On to “UUAAAUCAUGUAGGAUAUGCAUAGCAAAGCUAUGCAGAAGGACAUGAGGAUCACCCAUGUGCUUGCGUCCGCGUACGGAUGCUA [Mat - Exclusion NG 1 - Mod of JL - D68] (Eterna round: R96, puzzle: Exclusion NG 1)”, for which the “apparent KD of MS2 coat protein” value was found to be 0.733 µM (input ligand: FMN 200 uM), 0.0905 µM under setting [1] and 0.138 µM (input ligand: none).

Turning to “UUAAAUCAUGUAGGAUAUGCGUGGAGAAGCUAUGCAGAAGGACAUGAGGAUCACCCAUGUGCUUCCGUCUGAGAACAGACGGUA [Mat - Exclusion NG 1 - Mod of JL - D13] (Eterna round: R96, puzzle: Exclusion NG 1)”, the “apparent KD of MS2 coat protein” value came to 0.21 µM (input ligand: FMN 200 uM), 0.0499 µM under setting [1] and 0.0457 µM (input ligand: none).

In the case of “UUAAAUCAUGUAGGAUAUGCGUGGCGAAGCUAUGCAGAAGGACAUGAGGAUCACCCAUGUGCUAGCGUCUGCGUACAGAUGCAA [JL ENG1 1.11] (Eterna round: R96, puzzle: Exclusion NG 1)”, the “apparent KD of MS2 coat protein” value runs as follows: (input ligand: FMN 200 uM) 0.189 µM; under setting [1], 0.0652 µM; (input ligand: none) 0.0767 µM.

For the sequence “UUAACAUGCUGGUGAUCAUACAUGAGGAUCACCCAUGUAACAAGCUUUUUGCUCGUCUUAUAAGAUUACUAGUAUGU [Stov1/10-A1] (Eterna round: R97, puzzle: Sensor, turn-off variant 1)”, the “apparent KD of MS2 coat protein” value reads like this: (input ligand: FMN 200 uM) 0.0242 µM; (input ligand: none) 0.0264 µM.

For “UUAACCAGAGGAUAUGCGAAUAAAUAAAACUUUUUUUUUUAACAUGAGGAUCACCCAUGUAGAAGGCUGCAAUU [Ex2 #31] (Eterna round: R97, puzzle: Exclusion 2)”, the “apparent KD of MS2 coat protein” value is 0.032 µM (input ligand: FMN 200 uM) and 0.0468 µM (input ligand: none).

In the case of “UUAAGUAUAGAGGAUAUAUAAUAUUUAUUAACUAUAGAAGGCUAUACAUGAGGAUCACCCAUGUAUAUUGGGAU [JR_Ex6_Sub067] (Eterna round: R97, puzzle: Exclusion 6)”, the “apparent KD of MS2 coat protein” value runs as follows: (input ligand: FMN 200 uM) 0.0591 µM; (input ligand: none) 0.041 µM.

In the case of “UUAAUGGCUGUGAGGAUAUCGGAUAGAUAGAUAUUCGAGAAGGCACAUGAGGAUCACCCAUGUGUGAUCAGAGA [Brourd's EX4 #62] (Eterna round: R97, puzzle: Brourd's mod of Exclusion 4)”, the “apparent KD of MS2 coat protein” value reads like this: (input ligand: FMN 200 uM) 0.466 µM; (input ligand: none) 0.144 µM.

On to “UUAAUGGUUGUGAGGAUAUCGGAUAGAUAGAUAUUCGAGAAGGCACAUGAGGAUCACCCAUGUGUGAUCAGAAA [Brourd's EX4 #61] (Eterna round: R97, puzzle: Brourd's mod of Exclusion 4)”, for which the “apparent KD of MS2 coat protein” value is, setting by setting: (input ligand: FMN 200 uM) 0.41 µM; (input ligand: none) 0.202 µM.

“UUAAUUAAUUAAUUAGAUCCUCACAUGAGGAUCACCCAUGUGCAGGAUAUCAGCUCGAUUAGAGCUGAGAAGGGCACUAUUAAU [ExNG3/10-B4] (Eterna round: R96, puzzle: Exclusion NG 3)”: the “apparent KD of MS2 coat protein” value amounted to 0.0561 µM (input ligand: FMN 200 uM), 0.085 µM under setting [1] and 0.127 µM (input ligand: none).

Take “UUAAUUAAUUUAUUAGAUCCUCACAUGAGGAUCACCCAUGUGCAGGAUAUCAGCUCGUGUAGAGCUGAGAAGGGCACUAUAAAU [ExNG3/10-B3] (Eterna round: R96, puzzle: Exclusion NG 3)”: the “apparent KD of MS2 coat protein” value is, setting by setting: (input ligand: FMN 200 uM) 0.0298 µM; under setting [1], 0.0615 µM; (input ligand: none) 0.116 µM.

Turning to “UUACUGUGAGGAUAUUACAUUUAGCGGCUAGCAACUAGGGAUAAGAAGGCACAUGAGGAUCACCCAUGUCCCGU [Eternabot (L1) Solution 35] (Eterna round: R97, puzzle: Exclusion 4)”, the “apparent KD of MS2 coat protein” value (input ligand: FMN 200 uM) was found to be 0.0957 µM and the “apparent KD of MS2 coat protein” value (input ligand: none) stood at 0.0215 µM.

Turning to “UUAGAUUAUUGAGGAUAUGGAUCUUAUUAUUAACCAGAAGGCAAACUCAACAUGAGGAUCACCCAUGUAUAAAGGGUAUUAGUU [JR_ExcNG1_Sub099] (Eterna round: R96, puzzle: Exclusion NG 1)”, the “apparent KD of MS2 coat protein” value under setting [1] came to 0.0628 µM.

For the sequence “UUAGUGUAAGGAUAUGCAAACCACGGAAAUAAAACGUGGAGGUAGAAGGUACAUGAGGAUCACCCAUGUUAAAC [Mod of Anonveat 25 - Jieux - Exclusion 4] (Eterna round: R97, puzzle: Exclusion 4)”, the “apparent KD of MS2 coat protein” value (input ligand: FMN 200 uM) worked out at 0.034 µM and the “apparent KD of MS2 coat protein” value (input ligand: none) amounted to 0.0202 µM.
